No end group written: not given here. TMR = tetramethyl rhodamine dye

Holding throughout (assay): fluorescence polarisation; 37 °C, after the 25 °C reading ramped over 7 min to 37 °C and 2 min incubation; unlabeled Rb^P against 1.5 nM TMR-E2F1^TD or 7.5 nM TMR-E7^LxCxE; 25 mM Tris pH 8.0, 200 mM NaCl, 1 mM DTT, 0.1% Tween-20; apparent Kd
Common to all, as to settings: both partners purified

For one assay, the target named is T1, Rb^P A490S (human, UniProt P06400 380-788, A490S).
T1 construct: also called variant 15
T1 sequence (looked up): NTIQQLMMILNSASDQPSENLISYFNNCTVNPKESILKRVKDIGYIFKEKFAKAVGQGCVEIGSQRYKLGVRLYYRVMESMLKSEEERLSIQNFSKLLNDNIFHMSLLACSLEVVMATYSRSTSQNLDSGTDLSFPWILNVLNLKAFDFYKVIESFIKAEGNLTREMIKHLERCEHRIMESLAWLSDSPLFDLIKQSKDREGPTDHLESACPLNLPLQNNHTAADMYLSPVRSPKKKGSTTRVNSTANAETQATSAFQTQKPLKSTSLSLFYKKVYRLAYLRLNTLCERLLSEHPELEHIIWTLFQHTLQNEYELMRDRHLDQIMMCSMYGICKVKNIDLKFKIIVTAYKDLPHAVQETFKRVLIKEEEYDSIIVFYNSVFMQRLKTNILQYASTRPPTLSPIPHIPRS

Another assay concerns the target T2, Rb^P E539D (human, UniProt P06400 380-788, E539D).
T2 construct: also called variant 24
T2 sequence (looked up): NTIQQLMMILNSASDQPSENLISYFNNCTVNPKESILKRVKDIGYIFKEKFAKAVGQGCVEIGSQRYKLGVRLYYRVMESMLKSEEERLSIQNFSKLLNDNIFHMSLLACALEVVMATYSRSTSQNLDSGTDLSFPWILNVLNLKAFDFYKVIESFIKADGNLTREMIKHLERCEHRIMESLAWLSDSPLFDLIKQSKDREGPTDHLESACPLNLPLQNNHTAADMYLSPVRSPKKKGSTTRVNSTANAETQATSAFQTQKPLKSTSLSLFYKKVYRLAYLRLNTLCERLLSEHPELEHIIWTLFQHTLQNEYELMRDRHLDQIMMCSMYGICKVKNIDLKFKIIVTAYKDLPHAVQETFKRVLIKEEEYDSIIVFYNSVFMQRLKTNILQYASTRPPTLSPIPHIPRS

The target in a further assay is T3, Rb^P R741H (human, UniProt P06400 380-788, R741H).
T3 construct: also called variant 69
T3 sequence (looked up): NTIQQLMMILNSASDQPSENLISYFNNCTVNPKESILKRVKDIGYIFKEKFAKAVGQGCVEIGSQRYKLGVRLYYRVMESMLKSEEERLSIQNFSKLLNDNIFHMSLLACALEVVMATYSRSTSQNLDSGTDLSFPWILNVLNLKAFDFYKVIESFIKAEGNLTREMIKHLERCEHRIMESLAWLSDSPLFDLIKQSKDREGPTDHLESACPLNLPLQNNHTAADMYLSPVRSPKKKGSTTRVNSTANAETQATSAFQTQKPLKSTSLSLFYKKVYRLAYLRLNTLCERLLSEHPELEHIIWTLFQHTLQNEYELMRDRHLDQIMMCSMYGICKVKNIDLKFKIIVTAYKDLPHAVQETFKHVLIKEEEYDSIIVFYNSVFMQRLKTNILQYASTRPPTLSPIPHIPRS

A further assay has as its target T4, Rb^P I703F (human, UniProt P06400 380-788, I703F).
T4 construct: also called variant 64
T4 sequence (looked up): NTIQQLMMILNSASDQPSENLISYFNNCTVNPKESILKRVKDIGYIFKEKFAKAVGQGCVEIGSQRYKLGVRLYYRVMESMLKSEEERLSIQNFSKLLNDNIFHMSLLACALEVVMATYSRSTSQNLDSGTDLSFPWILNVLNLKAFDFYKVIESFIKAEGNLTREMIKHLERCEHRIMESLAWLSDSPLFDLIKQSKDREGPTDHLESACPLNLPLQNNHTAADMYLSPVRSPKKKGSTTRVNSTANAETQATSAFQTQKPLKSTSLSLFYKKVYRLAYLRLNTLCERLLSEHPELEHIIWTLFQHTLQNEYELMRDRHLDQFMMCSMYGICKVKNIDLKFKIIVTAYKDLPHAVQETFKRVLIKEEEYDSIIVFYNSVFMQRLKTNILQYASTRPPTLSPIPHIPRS

For another assay, the target named is T5, Rb^P K462T (human, UniProt P06400 380-788, K462T).
T5 construct: also called variant 9
T5 sequence (looked up): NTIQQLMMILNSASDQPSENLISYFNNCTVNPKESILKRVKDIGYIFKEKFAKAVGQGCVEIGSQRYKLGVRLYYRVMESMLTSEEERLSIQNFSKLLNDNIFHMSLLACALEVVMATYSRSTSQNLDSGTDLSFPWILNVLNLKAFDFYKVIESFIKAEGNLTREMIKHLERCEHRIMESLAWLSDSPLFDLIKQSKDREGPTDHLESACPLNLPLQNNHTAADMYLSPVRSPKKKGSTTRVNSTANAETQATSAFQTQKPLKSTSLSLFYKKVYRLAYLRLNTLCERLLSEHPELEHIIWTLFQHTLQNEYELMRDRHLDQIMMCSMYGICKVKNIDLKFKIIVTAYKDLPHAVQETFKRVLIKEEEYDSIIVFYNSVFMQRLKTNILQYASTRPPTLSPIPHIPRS

B1: TMR-E2F1^TD, peptide of the E2F1 transactivation domain (peptide)
peptide: {TMR}-GEGIRDLFDCDFGDLTPLD
notes: also called E2F^TD; source: synthetic peptide, bought: GenScript
For B1, the Kd with Rb^P A490S was determined as 29 nM; in the assay with Rb^P E539D, 104 nM; with Rb^P R741H, 41 nM; with Rb^P I703F it was 396 nM; with Rb^P K462T it was 51 nM.

B2: TMR-E7^LxCxE, LxCxE peptide of the E7 oncoprotein from HPV (peptide)
peptide: DLYCYEQLN
modifications: also: TMR label, position not given here
notes: source: synthetic peptide, bought: GenScript
Consider B2, for which the Kd is 15 nM with Rb^P A490S; 19 nM with Rb^P E539D; 21 nM with Rb^P R741H; 275 nM with Rb^P I703F; 16 nM with Rb^P K462T.
